Source: publication PMC6477179 (2019)

Biological target: GST-p62 FIR (aa 326-380) (human, UniProt Q13501 326-380)
Assay: SPR

Kd: 5.1 µM
B1: FIP200 CTR (aa 1458-1594) (domain or fragment)
chain: RIMLLERTLQLKEEENKRLNQRLMSQSMSSVSSRHSEKIAIRDFQVGDLVLIILDERHDNYVLFTVSPTLYFLHSESLPALDLKPGEGASGASRRPWVLGKVMEKEYCQAKKAQNRFKVPLGTKFYRVKAVSWNKKV
